The text below walks through data of patent US20240383993A1 (LANOVA MEDICINES, published 2024).

Where a chain is given by its changes, count along the chain named. Numbers in names are those of the source.

To fix the notation:
T1: His-tagged cynomolgus 4-1BB protein (cynomolgus, UniProt A9YYE7 24-186)
T1 construct: Coated on ELISA plates at 2 µg/ml; also called Cyno 4-1BB; soluble cynomolgus 4-1BB; not shown: His tag
T1 sequence: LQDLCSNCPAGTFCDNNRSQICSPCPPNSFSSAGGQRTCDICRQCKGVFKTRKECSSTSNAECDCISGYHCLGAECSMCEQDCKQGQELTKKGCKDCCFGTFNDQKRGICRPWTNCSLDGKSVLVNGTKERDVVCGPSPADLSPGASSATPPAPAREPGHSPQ

B1: VV02-1SP (1)-168 (Fc fusion, not shown: a dimerising Fc or GST; small tags and cut ends)
VHH: QVQLVESGGGLVQPGGSLRLSCAASGFTFSSYAMSWARQAPGKDFEWVSYIYSDGNTYYADSVKGRFTISRDNAKNTVYLQMNSLKPEDTAVYYCATWHTLRVGVWDEYDYWGQGTQVTVSS
notes: Llama nanobody tested as fusion with human IgG1 Fc (N297A)
B2: VV02-1LP-263 (Fc fusion)
VHH: EVQLVESGGGLVQPGGSLRLSCAASGFTFSSSAMSWARQTPGKGFEWVSGIYSDGSTYYTDSVKDRFTISRDNAKNTVYLQMNSLKPEDTAVYYCATWGTLRFGVWAEYDHWGQGTQVTVSS
notes: Llama nanobody tested as fusion with human IgG1 Fc (N297A); not shown: Human IgG1 Fc fragment with N297A, fused at the C-terminus of the VHH
B3: VV02-1LP-238 (Fc fusion, not shown: a dimerising Fc or GST; small tags and cut ends)
VHH: QVQLVESGGGLVQAGGALRLSCAASGFTLDYSAIGWFRQAPGKEREGVLCISSSGDVTIYADSVKGRFTISRDNAKNTVYLQMNSLKPEDTAVYYCVAPRICSTYSSDDYWGQGTQVTVSS
notes: as for B1
B4: VV02-1LP-422 (Fc fusion, not shown: a dimerising Fc or GST; small tags and cut ends)
VHH: B3 VHH with V2L, A14P, A17S, D30A, Y31D, S32Y
notes: as for B1
B5: VV02-3LP-142 (Fc fusion)
VHH: AVQLVESGGGLVQRGGSLKLSCVGSGFDFSDHAMSWARQVPGKGFEWVAYIYSDGSTYYADSVKGRFTISRDNAKDTVYLHMNSLKFEDMAVYYCATWRSQQVGRWDEYDHWGQGTQVTVSS
notes: Llama nanobody tested as fusion with human IgG1 Fc (N297A); not shown: Human IgG1 Fc fragment with N297A, plus the hinge or linker joining it to the nanobody
B6: VV02-1SP (1)-73 (Fc fusion, not shown: a dimerising Fc or GST; small tags and cut ends)
VHH: EVDLVESGGGLVQPGGSLRLSCAVSGFTFSNSAMSWARQAPGKEFEWVSSIYSDGKTYYVDSVKGRFTISRDNAKNTVYLQMSSLKPEDTAVYYCATWKTLRVGVWDESDYWGQGTQVTVSS
notes: as for B1

T3 sequence (Q07011 24-255): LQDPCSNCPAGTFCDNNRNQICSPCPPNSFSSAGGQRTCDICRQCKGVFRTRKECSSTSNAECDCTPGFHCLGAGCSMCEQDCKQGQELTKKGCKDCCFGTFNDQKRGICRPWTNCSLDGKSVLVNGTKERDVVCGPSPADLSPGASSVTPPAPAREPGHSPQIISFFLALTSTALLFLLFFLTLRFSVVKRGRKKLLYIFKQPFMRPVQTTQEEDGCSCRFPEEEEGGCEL

The target in one experiment is T1, His-tagged cynomolgus 4-1BB protein. The experiment is described as follows: ELISA, coated His-tagged 4-1BB, anti-human IgG-HRP. Here is the method: (§1) His-tagged 4-1BB was coated at 2 μg/ml overnight and then blocked by 2% BSA in PBS. Serially diluted anti-4-1BB nanobodies were incubated with the coated antigen for 1h at room temperature with a reference antibody “Ref mAb”. The resulting plates were washed with PBS/T and incubated with goat anti-human IgG-HRP for 1 h at room temperature. The plates were developed with TMB substrate and analyzed by spectrophotometer at OD 450 nm.
Molecule B1 had an EC50 of 0.06 nM.

On to B2, for which the EC50 is 0.04 nM.

In turn, B3 registered a concentration giving a half-maximal response (EC50) of 26.5 nM.

B4 returned an EC50 of 6.94 nM.

B5 yielded an EC50 of 18.2 nM.

In turn, B6 displayed an EC50 of 0.11 nM.

Another experiment has as its target T2, His-tagged human 4-1BB protein (human, UniProt Q07011 24-186).
T2 construct: Coated on ELISA plates at 2 µg/ml; also called hu4-1BB; soluble human 4-1BB; not shown: His tag
The experiment is described as follows: ELISA, coated His-tagged 4-1BB, anti-human IgG-HRP. Here is the method:
as §1
B1 showed an EC50 above 30 nM.

The molecule B2 gave an EC50 above 30 nM.

In turn, B3 had an EC50 of 9.12 nM.

Take B4: the EC50 was determined as 0.37 nM.

For B5, the EC50 is above 30 nM.

In turn, B6 returned an EC50 above 30 nM.

The next experiment concerns the target T3, human 4-1BB expressed on cells (human, UniProt Q07011 24-255).
T3 construct: whole, on cells; also called CHO-K1/hu4-1BB; cell surface human 4-1BB
The experiment is described as follows: flow cytometry competition with biotinylated human 4-1BB ligand on CHO-K1/human 4-1BB cells. How it is done: CHO-K1 cells overexpressing human 4-1BB were incubated with biotinylated human 4-1BB ligand (0.3 μg/ml) in the presence of serial diluted anti-41BB nanobodies for 1 h at 4° C. with Ref mAb as the reference antibody. Then, cells were incubated with Alexa Fluor 633-conjugated streptavidin. Binding was measured with an Agilent flow cytometer. As shown in FIG. 2 and Table 3, all of the tested nanobodies could block 4-1BB ligand binding to 4-1BB in a concentration-dependent manner while Ref mAb had no such effect.
Turning to B1, the IC50 turned out to be 0.387 nM.

B2 registered an IC50 of 0.566 nM.

The molecule B3 displayed an IC50 of 1.88 nM.

Turning to B4, the IC50 came to 1.48 nM.

Take B5: the IC50 worked out at 0.923 nM.

Take B6: the IC50 is 0.573 nM.

The next experiment concerns the target T3, human 4-1BB expressed on cells. The experiment is described as follows: cell-based or functional assay.
B1: the “EC50 (nM) in Jurkat-41BB NFκB reporter assay” value (from here on “EC50 (nM)”) was determined as 0.002 nM.

With B2, the “EC50 (nM)” value was determined as 0.017 nM.

As to B3, the “EC50 (nM)” value is 0.008 nM.

In the case of B4, the “EC50 (nM)” value was found to be 0.013 nM.

As to B5, the “EC50 (nM)” value was determined as 0.014 nM.

Turning to B6, the “EC50 (nM)” value is 0.01 nM.
